The supplement of paper PMC5998384

What was measured:
HeLa Kyoto [1] = assay: thermal stability score vs G1/S (z-score of summed log2 fold changes over temperatures); higher = more thermally stable than in G1/S
HeLa Kyoto [2] = assay: solubility change mitosis vs G1/S (difference of NP-40 vs SDS log2 ratios) (log2 ratio difference); higher = more soluble in mitosis
HeLa Kyoto [3] = assay: melting temperature (median over replicates), in situ; higher = more thermally stable
HeLa Kyoto [4] = assay: solubility in G1/S (NP-40 vs SDS abundance) (log2 ratio); higher = more soluble; details: cell cycle stage: G1/S
[5] = cell cycle stage: early G1 (4.5 h after nocodazole release)
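For melting temperature (median over replicates), in situ in this document: HeLa Kyoto cells synchronized by double thymidine or nocodazole block, proteins quantified by TMT10plex mass spectrometry, three independent biological replicates.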
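For solubility change mitosis vs G1/S (difference of NP-40 vs SDS log2 ratios) in this document: synchronized HeLa Kyoto cells (double thymidine block for G1/S, nocodazole release for mitosis), protein amounts in NP-40 versus SDS lysates quantified by mass spectrometry, three biological replicates.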
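For solubility in G1/S (NP-40 vs SDS abundance) in this document: HeLa Kyoto cells arrested at G1/S by double thymidine block, proteins quantified by TMT10plex mass spectrometry in mild NP-40 versus SDS extracts, three biological replicates.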
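For thermal stability score vs G1/S (z-score of summed log2 fold changes over temperatures) in this document: synchronized HeLa Kyoto cells, proteins quantified by TMT10plex mass spectrometry, three biological replicates, mitosis taken 0.5 h after nocodazole release, G1/S directly after double thymidine block.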

| Substance | thermal stability score (HeLa Kyoto [1]; [5]) | thermal stability score (HeLa Kyoto [1]; cell cycle stage: mitosis) | solubility change mitosis (log2) (HeLa Kyoto [2]) | melting temperature (HeLa Kyoto [3]; cell cycle stage: G1/S) [°C] | melting temperature (HeLa Kyoto [3]; cell cycle stage: mitosis) [°C] | solubility in G1/S (log2) (HeLa Kyoto [4]) |
| --- | --- | --- | --- | --- | --- | --- |
| MVPSSPAVEKQVPVEPGPDPELRSWRHLVCYLCFYGFMAQIRPGESFITPYLLGPDKNFTREQVTNEITPVLSYSYLAVLVPVFLLTDYLRYTPVLLLQGLSFVSVWLLLLLGHSVAHMQLMELFYSVTMAARIAYSSYIFSLVRPARYQRVAGYSRAAVLLGVFTSSVLGQLLVTVGRVSFSTLNYISLAFLTFSVVLALFLKRPKRSLFFNRDDRGRCETSASELERMNPGPGGKLGHALRVACGDSVLARMLRELGDSLRRPQLRLWSLWWVFNSAGYYLVVYYVHILWNEVDPTTNSARVYNGAADAASTLLGAITSFAAGFVKIRWARWSKLLIAGVTATQAGLVFLLAHTRHPSSIWLCYAAFVLFRGSYQFLVPIATFQIASSLSKELCALVFGVNTFFATIVKTIITFIVSDVRGLGLPVRKQFQLYSVYFLILSIIYFLGAMLDGLRHCQRGHHPRQPPAQGLRSAAEEKAAQALSVQDKGLGGLQPAQSPPLSPEDSLGAVGPASLEQRQSDPYLAQAPAPQAAEFLSPVTTPSPCTLCSAQASGPEAADETCPQLAVHPPGVSKLGLQCLPSDGVQNVNQ [SLC19A1] | -3.67 | -3.7 | -0.0504 | 57 | 54.9 | 0.075 |
| MATDELATKLSRRLQMEGEGGGETPEQPGLNGAAAAAAGAPDEAAEALGSADCELSAKLLRRADLNQGIGEPQSPSRRVFNPYTEFKEFSRKQIKDMEKMFKQYDAGRDGFIDLMELKLMMEKLGAPQTHLGLKNMIKEVDEDFDSKLSFREFLLIFRKAAAGELQEDSGLCVLARLSEIDVSSEGVKGAKSFFEAKVQAINVSSRFEEEIKAEQEERKKQAEEMKQRKAAFKELQSTFK [EFHD2] | 1.76 | 0.882 | 0.139 | 52.5 | 53.7 | 0.681 |
| MPKFKAARGVGGQEKHAPLADQILAGNAVRAGVREKRRGRGTGEAEEEYVGPRLSRRILQQARQQQEELEAEHGTGDKPAAPRERTTRLGPRMPQDGSDDEDEEWPTLEKAATMTAAGHHAEVVVDPEDERAIEMFMNKNPPARRTLADIIMEKLTEKQTEVETVMSEVSGFPMPQLDPRVLEVYRGVREVLSKYRSGKLPKAFKIIPALSNWEQILYVTEPEAWTAAAMYQATRIFASNLKERMAQRFYNLVLLPRVRDDVAEYKRLNFHLYMALKKALFKPGAWFKGILIPLCESGTCTLREAIIVGSIITKCSIPVLHSSAAMLKIAEMEYSGANSIFLRLLLDKKYALPYRVLDALVFHFLGFRTEKRELPVLWHQCLLTLVQRYKADLATDQKEALLELLRLQPHPQLSPEIRRELQSAVPRDVEDVPITVE [BYSL] | 1.85 | 5.44 | 0.115 | 48.3 | 49 | -0.343 |
| MASPPHQQLLHHHSTEVSCDSSGDSNSVRVKINPKQLSSNSHPKHCKYSISSSCSSSGDSGGVPRRVGGGGRLRRQKKLPQLFERASSRWWDPKFDSVNLEEACLERCFPQTQRRFRYALFYIGFACLLWSIYFAVHMRSRLIVMVAPALCFLLVCVGFFLFTFTKLYARHYAWTSLALTLLVFALTLAAQFQVLTPVSGRGDSSNLTATARPTDTCLSQVGSFSMCIEVLFLLYTVMHLPLYLSLCLGVAYSVLFETFGYHFRDEACFPSPGAGALHWELLSRGLLHGCIHAIGVHLFVMSQVRSRSTFLKVGQSIMHGKDLEVEKALKERMIHSVMPRIIADDLMKQGDEESENSVKRHATSSPKNRKKKSSIQKAPIAFRPFKMQQIEEVSILFADIVGFTKMSANKSAHALVGLLNDLFGRFDRLCEETKCEKISTLGDCYYCVAGCPEPRADHAYCCIEMGLGMIKAIEQFCQEKKEMVNMRVGVHTGTVLCGILGMRRFKFDVWSNDVNLANLMEQLGVAGKVHISEATAKYLDDRYEMEDGKVIERLGQSVVADQLKGLKTYLISGQRAKESRCSCAEALLSGFEVIDGSQVSSGPRGQGTASSGNVSDLAQTVKTFDNLKTCPSCGITFAPKSEAGAEGGAPQNGCQDEHKNSTKASGGPNPKTQNGLLSPPQEEKLTNSQTSLCEILQEKGRWAGVSLDQSALLPLRFKNIREKTDAHFVDVIKEDSLMKDYFFKPPINQFSLNFLDQELERSYRTSYQEEVIKNSPVKTFASPTFSSLLDVFLSTTVFLTLSTTCFLKYEAATVPPPPAALAVFSAALLLEVLSLAVSIRMVFFLEDVMACTKRLLEWIAGWLPRHCIGAILVSLPALAVYSHVTSEYETNIHFPVFTGSAALIAVVHYCNFCQLSSWMRSSLATVVGAGPLLLLYVSLCPDSSVLTSPLDAVQNFSSERNPCNSSVPRDLRRPASLIGQEVVLVFFLLLLLVWFLNREFEVSYRLHYHGDVEADLHRTKIQSMRDQADWLLRNIIPYHVAEQLKVSQTYSKNHDSGGVIFASIVNFSEFYEENYEGGKECYRVLNELIGDFDELLSKPDYSSIEKIKTIGATYMAASGLNTAQAQDGSHPQEHLQILFEFAKEMMRVVDDFNNNMLWFNFKLRVGFNHGPLTAGVIGTTKLLYDIWGDTVNIASRMDTTGVECRIQVSEESYRVLSKMGYDFDYRGTVNVKGKGQMKTYLYPKCTDHRVIPQHQLSISPDIRVQVDGSIGRSPTDEIANLVPSVQYVDKTSLGSDSSTQAKDAHLSPKRPWKEPVKAEERGRFGKAIEKDDCDETGIEEANELTKLNVSKSV [ADCY9] | 0.368 | -0.65 | -0.172 | 52.3 | 52 | -0.0462 |
| MAATAREDGASGQERGQRGCEHYDRGCLLKAPCCDKLYTCRLCHDNNEDHQLDRFKVKEVQCINCEKIQHAQQTCEECSTLFGEYYCDICHLFDKDKKQYHCENCGICRIGPKEDFFHCLKCNLCLAMNLQGRHKCIENVSRQNCPICLEDIHTSRVVAHVLPCGHLLHRTCYEEMLKEGYRCPLCMHSALDMTRYWRQLDDEVAQTPMPSEYQNMTVDILCNDCNGRSTVQFHILGMKCKICESYNTAQAGGRRISLDQQ [RCHY1] | -0.0247 | 0.646 | -0.374 | 51.2 | 52.3 | 0.146 |
| AKAP13 | -0.167 | 1.43 | -0.118 | 50.6 | 49.6 | -0.0395 |
| MDGRTPRPQDAPARRKPKAKAPLPPAETKYTDVSSAADSVESTAFIMEQKENMIDKDVELSVVLPGDIIKSTTVHGSKPMMDLLIFLCAQYHLNPSSYTIDLLSAEQNHIKFKPNTPIGMLEVEKVILKPKMLDKKKPTPIIPEKTVRVVINFKKTQKTIVRVSPHASLQELAPIICSKCEFDPLHTLLLKDYQSQEPLDLTKSLNDLGLRELYAMDVNRESCQISQNLDIMKEKENKGFFSFFQRSKKKRDQTASAPATPLVNKHRPTFTRSNTISKPYISNTLPSDAPKKRRAPLPPMPASQSVPQDLAHIQERPASCIVKSMSVDETDKSPCEAGRVRAGSLQLSSMSAGNSSLRRTKRKAPSPPSKIPPHQSDENSRVTALQPVDGVPPDSASEANSPEELSSPAGISSDYSLEEIDEKEELSEVPKVEAENISPKSQDIPFVSTDIINTLKNDPDSALGNGSGEFSQNSMEEKQETKSTDGQEPHSVVYDTSNGKKVVDSIRNLKSLGPNQENVVQNEIIVYPENTEDNMKNGVKKTEINVEGVAKNNNIDMEVERPSNSEAHETDTAISYKENHLAASSVPDQKLNQPSAEKTKDAAIQTTPSCNSFDGKHQDHNLSDSKVEECVQTSNNNISTQHSCLSSQDSVNTSREFRSQGTLIIHSEDPLTVKDPICAHGNDDLLPPVDRIDKNSTASYLKNYPLYRQDYNPKPKPSNEITREYIPKIGMTTYKIVPPKSLEISKDWQSETIEYKDDQDMHALGKKHTHENVKETAIQTEDSAISESPEEPLPNLKPKPNLRTEHQVPSSVSSPDDAMVSPLKPAPKMTRDTGTAPFAPNLEEINNILESKFKSRASNAQAKPSSFFLQMQKRVSGHYVTSAAAKSVHAAPNPAPKELTNKEAERDMLPSPEQTLSPLSKMPHSVPQPLVEKTDDDVIGQAPAEASPPPIAPKPVTIPASQVSTQNLKTLKTFGAPRPYSSSGPSPFALAVVKRSQSFSKERTESPSASALVQPPANTEEGKTHSVNKFVDIPQLGVSDKENNSAHNEQNSQIPTPTDGPSFTVMRQSSLTFQSSDPEQMRQSLLTAIRSGEAAAKLKRVTIPSNTISVNGRSRLSHSMSPDAQDGH [COBLL1] | -0.155 | -0.336 | -0.0197 | 50.5 | 50.8 | 0.0471 |
| MAVPAAAMGPSALGQSGPGSMAPWCSVSSGPSRYVLGMQELFRGHSKTREFLAHSAKVHSVAWSCDGRRLASGSFDKTASVFLLEKDRLVKENNYRGHGDSVDQLCWHPSNPDLFVTASGDKTIRIWDVRTTKCIATVNTKGENINICWSPDGQTIAVGNKDDVVTFIDAKTHRSKAEEQFKFEVNEISWNNDNNMFFLTNGNGCINILSYPELKPVQSINAHPSNCICIKFDPMGKYFATGSADALVSLWDVDELVCVRCFSRLDWPVRTLSFSHDGKMLASASEDHFIDIAEVETGDKLWEVQCESPTFTVAWHPKRPLLAFACDDKDGKYDSSREAGTVKLFGLPNDS [THOC3] | -1.08 | 1.13 | 0.047 | 50.6 | 51.9 | -0.421 |
